Assay results taken from article PMC9535766, “Structural insights into the assembly and activation of the IL‐27 signaling complex” (EMBO Reports, 2022).

B1: biotinylated mouse IL‐27Rα (amino acids 28–224) (receptor, UniProt O70394 28-224, looked up)
chain: HGSPGPLQCYSVGPLGILNCSWEPLGDLETPPVLYHQSQKYHPNRVWEVKVPSKQSWVTIPREQFTMADKLLIWGTQKGRPLWSSVSVNLETQMKPDTPQIFSQVDISEEATLEATVQWAPPVWPPQKVLICQFRYKECQAETWTRLEPQLKTDGLTPVEMQNLEPGTCYQVSGRCQVENGYPWGEWSSPLSFQTPF
modifications: N‐terminal biotinylated in vitro using EZ‐Link Sulfo‐NHS‐SS‐Biotin at pH 6.5
notes: IL-27 receptor alpha, murine, amino acids 28–224; Same construct as m2, chemically biotinylated for capture on the streptavidin chip; also called biotinylated IL‐27Rα; source: Trichoplusia ni (High Five) cells, baculovirus, secreted; purified (Ni-NTA, SEC); biotinylated in vitro
B2: murine IL‐27, linker‐connected single‐chain variant (p28 + EBI3) (ligand)
chain: GSYTETALVALSQPRVQCHASRYPVAVDCSWTPLQAPNSTRSTSFIATYRLGVATQQQSQPCLQRSPQASRCTIPDVHLFSTVPYMLNVTAVHPGGASSSLLAFVAERIIKPDPPEGVRLRTAGQRLQVLWHPPASWPFPDIFSLKYRLRYRRRGASHFRQVGPIEATTFTLRNSKPHAKYCIQVSAQDLTDYGKPSDWSLPGQVESAPHKPRGGGGSGGGGSVESGENLYFQGFPTDPLSLQELRREFTVSLYLARKLLSEVQGYVHSFAESRLPGVNLDLLPLGYHLPNVSLTFQAWHHLSDSERLCFLATTLRPFPAMLGGLGTQGTWTSSEREQLWAMRLDLRDLHRHLRFQVLAAGFKCSKEEEDKEEEEEEEEEEKKLPLGALGGPNQVSSQVSWPQLLYTYQLLHSLELVLSRAVRDLLLLSLPRRPGSAWDS

Key:
[1] = target: T1, mouse p28 (IL‐27p28), alone (mouse, UniProt Q8K3I6 29-234); experiment: SPR; Biacore T100; biotinylated receptor immobilised on SA chip (~100 RU); p28 flowed, 1:2 dilution series from 20 μM; 25°C; 10 mM HEPES, 150 mM NaCl, 0.05% TWEEN‐20, pH 7.2, 0.5% BSA; equilibrium analysis; settings: both partners purified
T1 construct: IL-27 p28 subunit, mouse; source: recombinantly produced
T1 sequence (looked up): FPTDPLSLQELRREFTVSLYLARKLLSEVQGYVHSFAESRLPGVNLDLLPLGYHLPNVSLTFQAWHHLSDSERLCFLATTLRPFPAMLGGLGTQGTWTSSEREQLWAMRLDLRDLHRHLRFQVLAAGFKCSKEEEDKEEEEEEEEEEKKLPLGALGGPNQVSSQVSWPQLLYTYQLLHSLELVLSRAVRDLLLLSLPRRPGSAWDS

[2] = target: T2, C‐terminal biotinylated mouse GP130 with biotin acceptor peptide (mouse, UniProt Q00560 23-319, biotin on the biotin acceptor peptide (BirA ligase)); experiment: SPR; Biacore T100; biotinylated receptor immobilised on SA chip (~100 RU); IL‐27 flowed, 1:3 dilution series from 100 nM, 30 μl/min; 25°C; 10 mM HEPES, 150 mM NaCl, 0.05% TWEEN‐20, pH 7.2, 0.5% BSA; kinetic 1:1 fit; settings: both partners purified
T2 construct: GP130, murine, amino acids 23–319; also called biotinylated GP130; source: insect cells (pAcGP67‐A vector), purified; biotinylated with BirA ligase
T2 sequence (looked up): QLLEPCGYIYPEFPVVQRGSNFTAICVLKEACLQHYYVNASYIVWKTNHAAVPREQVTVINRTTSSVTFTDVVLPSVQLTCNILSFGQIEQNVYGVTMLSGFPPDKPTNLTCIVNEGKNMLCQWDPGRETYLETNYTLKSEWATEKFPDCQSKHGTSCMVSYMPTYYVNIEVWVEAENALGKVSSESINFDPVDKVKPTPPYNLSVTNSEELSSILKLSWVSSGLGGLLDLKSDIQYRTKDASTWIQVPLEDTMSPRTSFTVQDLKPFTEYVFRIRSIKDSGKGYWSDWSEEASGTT

[3] = target: B1; experiment: as above; settings: both partners purified
[4] = target: T3, C‐terminal biotinylated mouse GP130 with biotin acceptor peptide (mouse, UniProt Q00560 23-319, biotin on the biotin acceptor peptide (BirA ligase)); experiment: SPR
T3 chain: T2 sequence (looked up)

[5] = target: T4, biotinylated mouse IL‐27Rα (amino acids 28–224) (mouse, UniProt O70394 28-224, N‐terminal biotinylated in vitro using EZ‐Link Sulfo‐NHS‐SS‐Biotin at pH 6.5); experiment: SPR
T4 chain: B1 chain

Binder	Kd [1] [nM]	Kd [2] [nM]	Kd [3] [nM]	koff [4] [s⁻¹]	koff [5] [s⁻¹]
B1	1700				
B2		2.1	0.28	0.02	0.001
